Data as given in article PMC5985294.

biological target: Neutrophil elastase (NE), active, human (human) (UniProt P08246)
Chain of UniProt P08246 (P08246 30-267): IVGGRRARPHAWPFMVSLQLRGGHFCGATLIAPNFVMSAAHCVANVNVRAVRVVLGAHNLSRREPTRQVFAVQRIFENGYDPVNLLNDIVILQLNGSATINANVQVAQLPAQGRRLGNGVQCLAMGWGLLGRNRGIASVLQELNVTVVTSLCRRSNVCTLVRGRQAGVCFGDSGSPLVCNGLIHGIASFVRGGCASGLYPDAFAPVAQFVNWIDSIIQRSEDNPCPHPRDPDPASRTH

IC50 of inhibition of NE (5 nM) degradation of fluorogenic elastase substrate V (MeOSuc-Ala-Ala-Pro-Val-AMC), after 30 min pre-incubation at 37°C [nM] | IC50 of inhibition of NE (5 nM) gelatinolytic activity, DQ-gelatin degradation, with 50 µM SB-3CT [nM] | Substance
76.3 | 51.2 | MMP-9-treated SLPI, MMP-9/SLPI molar ratio 1/5 (from UniProt P03973 26-41; P03973 42-96; P03973 97-132)
28.9 | 5.24 | MMP-9-treated SLPI, MMP-9/SLPI molar ratio 1/20 (from UniProt P03973 26-96; P03973 97-132)
8.71 | 0.97 | Secretory leukocyte peptidase inhibitor (SLPI), intact (from UniProt P03973 26-132) (natural protein)
